kon data for one substance are collected here from patent US20230193235A1.

The test has as its target RBD (a.a. 333-529) of SARS-CoV-2 S fused to the Fc region of IgG1 (SARS-CoV-2; human) (UniProt P0DTC2). In words: BLI, RBD-IgG1 captured on anti-human Fc sensor, dimeric sACE22 as analyte (avid).

“untagged sACE22.v2.4 manufactured in ExpiCHO-S cells (from UniProt Q9BYF1 19-732) (receptor)”: the kon amounted to 200000 M⁻¹ s⁻¹.
